Broadly, the pKd is the Kd on a negative log10 scale, so that one unit is a factor of ten.

pKd: −log10 of the molar value.

Consider 1 substance from USRE38202.

For test [1], the target named is intact human Factor IX (human) (UniProt P00740). Put plainly: cell-based or functional assay.
The target of the next test is Factor IXα (human) (UniProt P00740). The test can be described thus: ELISA affinity determination (Kim et al.). Background: ELISA stands for enzyme-linked immunosorbent assay.
Test [2] concerns the target intact human Factor IX (human) (UniProt P00740). Put plainly: ELISA affinity determination (Kim et al.).
Test [3] addresses Factor II (UniProt P00734). Put plainly: affinity chromatography on CLB-FIX D4-Sepharose; 73 ml.
For test [4], the target named is Factor X (UniProt P00742). Described as above.
Test [5] addresses Factor II (UniProt P00734). Put plainly: affinity chromatography on CLB-FIX D4-Sepharose; 440 ml.
The target in test [6] is Factor X (UniProt P00742). The description is as above.
Test [7] addresses Factor IXaβ (human) (UniProt P00740). The test can be described thus: CLB-FIX D4 affinity chromatography, Factor IXα mixture applied.
Test [8] has as its target intact human Factor IX (human) (UniProt P00740). The description is as above.
The target is the same in test [9]. Put plainly: CLB-FIX D4 affinity chromatography, purified Factor IX applied.
Test [10] addresses Factor IXaβ (human) (UniProt P00740). Put plainly: CLB-FIX D4 affinity chromatography, Factor IXaβ mixture applied.
In test [11] the target is intact human Factor IX (human) (UniProt P00740). The test is described as above.
The target is the same in test [12]. Put plainly: affinity chromatography on CLB-FIX D4-Sepharose, clotting activity; 73 ml.
The target is the same in test [13]. Put plainly: affinity chromatography on CLB-FIX D4-Sepharose, clotting activity; 440 ml.
For test [14] the target is unchanged. Put plainly: affinity chromatography of prothrombin complex concentrate, elution with 2 M KSCN.

UniProt P00742, sequence (P00742 41-488 limits assumed): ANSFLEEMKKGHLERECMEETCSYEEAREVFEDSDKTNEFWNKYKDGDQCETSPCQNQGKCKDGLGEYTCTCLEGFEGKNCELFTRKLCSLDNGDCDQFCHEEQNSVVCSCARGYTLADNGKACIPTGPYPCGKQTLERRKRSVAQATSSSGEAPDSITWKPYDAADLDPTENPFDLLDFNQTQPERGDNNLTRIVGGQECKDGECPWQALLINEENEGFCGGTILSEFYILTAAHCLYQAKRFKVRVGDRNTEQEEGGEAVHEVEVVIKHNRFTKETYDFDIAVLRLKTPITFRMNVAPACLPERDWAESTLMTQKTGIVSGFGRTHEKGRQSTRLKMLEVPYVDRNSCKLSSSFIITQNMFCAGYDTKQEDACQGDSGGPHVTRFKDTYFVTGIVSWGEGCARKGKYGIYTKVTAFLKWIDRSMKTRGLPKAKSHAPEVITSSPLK

With monoclonal antibody CLB-FIX D4, the Factor IX clotting activity (one stage coagulation assay), residual activity after incubation with antibody in [1] is above 90%. In the test with Factor IXα (human), this substance had a pKd of 9.52 and a fold alteration of affinity (Factor IXα against intact Factor IX) above 4 fold. The pKd in test [2] is 8.92. In the test with Factor II [3], this substance came in with an FII in eluate (U/ml) below 0.008 U/ml. This substance returned an FX in eluate (U/ml) with Factor X [4] below 0.003 U/ml. Also, in the test with Factor II [5], the FII in flow through (U/ml) was determined as 49.7 U/ml. In addition, the FX in flow through (U/ml) with Factor X [6] came to 51 U/ml. Moreover, in the test with Factor IXaβ (human) [7], the FIXaβ eluted was below 0.001 µg and the FIXaβ unbound was found to be 7 µg. The Intact FIX eluted in test [8] was 85 µg. In test [9], this substance showed an Intact FIX eluted of 588 µg, an Intact FIX unbound of 23 µg, a Protein eluted of 580 µg and a Protein unbound of 20 µg. In the test with Factor IXaβ (human) [10], the FIXaβ eluted is below 0.001 µg and the FIXaβ unbound was 550 µg. In addition, the Intact FIX eluted in test [11] amounted to 50 µg. This substance showed an FIX in eluate (U/ml) in test [12] of 98.7 U/ml. In test [13], this substance came in with an FIX in flow through (U/ml) of 10.4 U/ml. In addition, the Factor IX activity recovered in the eluate in [14] turned out to be 67%.
